Source: US20130236459A1 (MERRIMACK PHARMACEUTICALS, published 2013)
Changes are numbered by the printed parent chain. Like-named read-outs stand apart in the source and are kept apart here. Each block holds one binder with its values, some of them ahead of it.

Tests used:
Test in all cases: cell-based or functional assay
[1] = molecular target: T1, IGF-1R (receptor for insulin-like growth factor 1), endogenous on human tumor cell lines (human, UniProt P08069 31-1367)
[2] = molecular target: T1, IGF-1R (receptor for insulin-like …); remark: listed apart in the source
[3] = molecular target: T1, IGF-1R (receptor for insulin-like …); remark: listed apart in the source
[4] = molecular target: T1, IGF-1R (receptor for insulin-like …); remark: listed apart in the source
[5] = molecular target: T1, IGF-1R (receptor for insulin-like …); remark: listed apart in the source
[6] = molecular target: T2, ErbB3 (HER3), endogenous on human tumor cell lines (human, UniProt P21860 20-1342)
T2 sequence (P21860 20-1342 limits assumed): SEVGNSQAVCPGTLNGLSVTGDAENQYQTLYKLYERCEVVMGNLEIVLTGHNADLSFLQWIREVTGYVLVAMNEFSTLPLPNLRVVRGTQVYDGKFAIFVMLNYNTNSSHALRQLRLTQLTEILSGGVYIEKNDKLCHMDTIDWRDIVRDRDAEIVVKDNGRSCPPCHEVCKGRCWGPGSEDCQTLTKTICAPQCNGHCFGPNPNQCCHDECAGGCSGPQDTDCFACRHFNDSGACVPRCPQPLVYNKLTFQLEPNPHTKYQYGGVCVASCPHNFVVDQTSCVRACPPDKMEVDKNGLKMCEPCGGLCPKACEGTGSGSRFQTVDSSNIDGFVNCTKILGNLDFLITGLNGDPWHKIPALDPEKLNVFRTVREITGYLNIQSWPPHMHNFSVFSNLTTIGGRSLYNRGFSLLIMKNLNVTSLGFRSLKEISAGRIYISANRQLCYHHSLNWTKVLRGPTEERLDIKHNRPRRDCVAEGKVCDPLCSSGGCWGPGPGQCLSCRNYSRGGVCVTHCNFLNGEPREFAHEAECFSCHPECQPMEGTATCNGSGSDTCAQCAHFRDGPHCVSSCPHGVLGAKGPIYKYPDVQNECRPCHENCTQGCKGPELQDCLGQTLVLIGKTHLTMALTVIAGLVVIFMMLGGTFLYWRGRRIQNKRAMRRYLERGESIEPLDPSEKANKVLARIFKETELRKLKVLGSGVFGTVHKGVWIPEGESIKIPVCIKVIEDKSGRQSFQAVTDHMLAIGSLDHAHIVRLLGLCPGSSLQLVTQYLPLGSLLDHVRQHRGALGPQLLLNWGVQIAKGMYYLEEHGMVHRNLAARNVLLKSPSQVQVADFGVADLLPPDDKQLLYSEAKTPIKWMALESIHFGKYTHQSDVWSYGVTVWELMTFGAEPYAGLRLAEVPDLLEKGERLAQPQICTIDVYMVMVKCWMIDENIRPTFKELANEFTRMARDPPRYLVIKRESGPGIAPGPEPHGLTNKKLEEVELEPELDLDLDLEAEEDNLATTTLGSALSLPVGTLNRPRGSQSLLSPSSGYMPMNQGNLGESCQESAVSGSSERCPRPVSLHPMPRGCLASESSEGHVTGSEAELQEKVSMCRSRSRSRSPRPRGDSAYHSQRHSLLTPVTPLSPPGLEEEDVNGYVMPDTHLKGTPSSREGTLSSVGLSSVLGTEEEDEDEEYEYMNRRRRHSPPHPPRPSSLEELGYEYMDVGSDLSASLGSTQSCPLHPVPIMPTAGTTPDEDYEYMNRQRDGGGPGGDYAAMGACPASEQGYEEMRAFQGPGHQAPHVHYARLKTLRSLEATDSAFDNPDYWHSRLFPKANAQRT

[7] = molecular target: T1, IGF-1R (receptor for insulin-like …); remark: listed apart in the source
[8] = molecular target: T2, ErbB3 (HER3), endogenous on human tumor …; remark: listed apart in the source
[9] = molecular target: T2, ErbB3 (HER3), endogenous on human tumor …; remark: listed apart in the source
[10] = molecular target: T1, IGF-1R (receptor for insulin-like …); remark: listed apart in the source

T1 sequence (P08069 31-1367): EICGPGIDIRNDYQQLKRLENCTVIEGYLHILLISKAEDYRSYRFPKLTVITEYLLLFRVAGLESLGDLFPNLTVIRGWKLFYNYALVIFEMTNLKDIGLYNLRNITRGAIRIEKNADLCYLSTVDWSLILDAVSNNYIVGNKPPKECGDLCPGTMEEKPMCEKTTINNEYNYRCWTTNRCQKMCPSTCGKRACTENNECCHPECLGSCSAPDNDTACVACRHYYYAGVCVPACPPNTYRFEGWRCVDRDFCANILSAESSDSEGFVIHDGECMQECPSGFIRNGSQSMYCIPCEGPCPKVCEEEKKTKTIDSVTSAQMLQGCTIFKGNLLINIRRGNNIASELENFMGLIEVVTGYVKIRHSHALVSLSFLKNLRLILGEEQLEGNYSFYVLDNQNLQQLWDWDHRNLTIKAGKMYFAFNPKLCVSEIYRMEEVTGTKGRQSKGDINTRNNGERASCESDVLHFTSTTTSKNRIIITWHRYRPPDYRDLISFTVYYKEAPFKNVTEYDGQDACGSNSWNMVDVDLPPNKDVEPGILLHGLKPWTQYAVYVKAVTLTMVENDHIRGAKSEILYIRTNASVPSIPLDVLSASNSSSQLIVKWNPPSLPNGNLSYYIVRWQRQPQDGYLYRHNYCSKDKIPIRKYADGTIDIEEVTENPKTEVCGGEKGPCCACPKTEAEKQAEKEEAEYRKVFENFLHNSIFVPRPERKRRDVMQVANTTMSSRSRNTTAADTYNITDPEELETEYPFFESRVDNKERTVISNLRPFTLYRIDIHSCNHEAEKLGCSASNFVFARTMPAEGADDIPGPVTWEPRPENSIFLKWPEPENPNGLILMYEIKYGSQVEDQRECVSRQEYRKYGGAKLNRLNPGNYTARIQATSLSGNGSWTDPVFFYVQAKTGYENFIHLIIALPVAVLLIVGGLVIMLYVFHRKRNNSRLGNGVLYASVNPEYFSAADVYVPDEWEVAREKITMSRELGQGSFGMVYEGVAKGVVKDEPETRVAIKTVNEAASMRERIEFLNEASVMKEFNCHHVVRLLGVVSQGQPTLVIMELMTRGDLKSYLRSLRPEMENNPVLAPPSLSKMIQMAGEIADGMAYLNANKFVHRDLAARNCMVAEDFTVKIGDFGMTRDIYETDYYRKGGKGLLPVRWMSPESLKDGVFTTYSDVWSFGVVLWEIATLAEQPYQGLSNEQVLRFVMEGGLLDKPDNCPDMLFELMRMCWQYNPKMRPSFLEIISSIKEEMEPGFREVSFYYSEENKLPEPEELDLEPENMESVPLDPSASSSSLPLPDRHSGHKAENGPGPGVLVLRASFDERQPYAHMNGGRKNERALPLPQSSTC

pAKT IC50 (BxPC-3) [1]: 2.6e-10 M (inferred) | pIGF-1R IC50 (BxPC-3) [1]: 1.5e-10 M (inferred) | pAKT IC50 (BxPC-3 50% ErbB3 KD) [2]: 1.3e-07 M | pAKT IC50 (BxPC-3 50% IGF1R KD) [2]: 4e-08 M | pAKT IC50 (BxPC-3 Vector Control) [2]: 2.1e-08 M | pAKT IC50 (BxPC-3, IGF1 40 ng/ml) [3]: 7.4e-09 M | pAKT IC50 (BxPC-3, IGF1 400 ng/ml) [3]: 9.1e-09 M | pIGF1R IC50 (BxPC-3, IGF1 40 ng/ml) [3]: 7.8e-10 M | pIGF1R IC50 (BxPC-3, IGF1 400 ng/ml) [3]: 2.5e-10 M | % IGF1R Downregulation (A549, 24 h) [4]: 57% | % IGF1R Downregulation (BxPC-3, 24 h) [4]: 51% | pAKT IC50 (BxPC-3) [5]: 8e-11 M (inferred) | pIGF1R IC50 (BxPC-3) [5]: 1.6e-09 M (inferred)
B1: ANTI-IGF-1R Ab# A (ganitumab) (antibody, V domains shown)
VH: QVQLQESGPGLVKPSGTLSLTCAVSGGSISSSNWWSWVRQPPGKGLEWIGEIYHSGSTNYNPSLKSRVTISVDKSKNQFSLKLSSVTAADTAVYYCARWTGRTDAFDIWGQGTMVTVSS
VL: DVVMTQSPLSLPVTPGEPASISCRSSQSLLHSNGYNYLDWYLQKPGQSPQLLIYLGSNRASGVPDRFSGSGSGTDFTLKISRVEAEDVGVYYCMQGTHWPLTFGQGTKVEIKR

pIGF1R IC50 (BxPC-3) [5]: 1.4e-09 M (inferred) | pErbB3 IC50 (BxPC-3) [6]: 1e-11 M (inferred) | pIGF1R % Inhibition (BxPC-3) [7]: 86% | pIGF1R IC50 (BxPC-3) [7]: 3.5e-09 M (inferred) | pErbB3 % Inhibition (BxPC-3) [8]: 115% | pErbB3 IC50 (BxPC-3) [8]: 8e-11 M (inferred)
B2: B60-G1-M78 (bispecific antibody, human IgG1, lambda)
heavy: not shown
light: SSELTQDPAVSVALGQTVRITCQGDSLRSYYASWYQQKPGQAPVLVIYGKNNRPSGIPDRFSGSSSGNTASLTITGAQAEDEADYYCNSRDWPGNQWVFGGGTKVTVLGQPKAAPSVTLFPPSSEELQANKATLVCLVSDFYPGAVTVAWKADGSPVKVGVETTKPSKQSNNKYAASSYLSLTPEQWKSHRSYSCRVTHEGSTVEKTVAPAECS

pIGF1R IC50 (BxPC-3) [5]: 2.2e-08 M (inferred) | pErbB3 IC50 (BxPC-3) [6]: ~2.4e-14 M (inferred) | pIGF1R % Inhibition (BxPC-3) [7]: 88% | pIGF1R IC50 (BxPC-3) [7]: 4.4e-09 M (inferred) | pErbB3 % Inhibition (BxPC-3) [8]: 99% | pErbB3 IC50 (BxPC-3) [8]: 4e-11 M (inferred)
B9: B60-G1-P4 (bispecific antibody, human IgG1, lambda)
heavy: not shown
light: B2 light

pIGF1R IC50 (BxPC-3) [5]: 4.4e-09 M (inferred) | pErbB3 IC50 (BxPC-3) [6]: 2.3e-11 M (inferred) | pIGF1R % Inhibition (BxPC-3) [7]: 85% | pIGF1R IC50 (BxPC-3) [7]: 1e-08 M (inferred) | pErbB3 % Inhibition (BxPC-3) [8]: 162% | pErbB3 IC50 (BxPC-3) [8]: 1.2e-09 M (inferred)
B10: B60-G1-M57 (bispecific antibody, human IgG1, lambda)
heavy: not shown
light: B2 light

pIGF1R % Inhibition (BxPC-3) [7]: 94% | pIGF1R IC50 (BxPC-3) [7]: 4.1e-10 M (inferred) | pErbB3 % Inhibition (BxPC-3) [8]: 99% | pErbB3 IC50 (BxPC-3) [8]: 1.4e-10 M (inferred)
B13: M57-G1-M1.3 (bispecific antibody, human IgG1, kappa)
heavy: not shown
light: DIQLTQSPSSLSASLGDRVTITCRASQGISSYLAWYQQKPGKAPKLLIYARSTRQSGVPSRFSGSGSGTEFTLTISSLQPEDSATYYCQQYWTWPLTFGGGTKVEIKRTVAAPSVFIFPPSDEQLKSGTASVVCLLNNFYPREAKVQWKVDNALQSGNSQESVTEQDSKDSTYSLSSTLTLSKADYEKHKVYACEVTHQGLSSPVTKSFNRGEC

pIGF1R % Inhibition (BxPC-3) [7]: 97% | pIGF1R IC50 (BxPC-3) [7]: 5e-10 M (inferred) | pErbB3 % Inhibition (BxPC-3) [8]: 99% | pErbB3 IC50 (BxPC-3) [8]: 1.4e-10 M (inferred)
B14: M78-G1-M1.3 (bispecific antibody, human IgG1, kappa)
heavy: not shown
light: B13 light with L4M, R51S, E70D, A84G, T93A, W94F

pIGF1R % Inhibition (BxPC-3) [7]: 93% | pIGF1R IC50 (BxPC-3) [7]: 2.5e-10 M (inferred) | pErbB3 % Inhibition (BxPC-3) [8]: 98% | pErbB3 IC50 (BxPC-3) [8]: 6.5e-11 M (inferred)
B15: M57-G1-C8 (bispecific antibody, human IgG1, kappa)
heavy: not shown
light: B13 light

pIGF1R % Inhibition (BxPC-3) [7]: 92% | pIGF1R IC50 (BxPC-3) [7]: 2.5e-10 M (inferred) | pErbB3 % Inhibition (BxPC-3) [8]: 98% | pErbB3 IC50 (BxPC-3) [8]: 7.9e-11 M (inferred)
B16: M57-G1-P6 (bispecific antibody, human IgG1, kappa)
heavy: not shown
light: B13 light

pIGF1R % Inhibition (BxPC-3) [7]: 96% | pIGF1R IC50 (BxPC-3) [7]: 6.8e-10 M (inferred) | pErbB3 % Inhibition (BxPC-3) [8]: 98% | pErbB3 IC50 (BxPC-3) [8]: 2.3e-10 M (inferred)
B18: M78-G1-C8 (bispecific antibody, human IgG1, kappa)
heavy: not shown
light: B13 light with L4M, R51S, E70D, A84G, T93A, W94F

pIGF1R % Inhibition (BxPC-3) [7]: 95% | pIGF1R IC50 (BxPC-3) [7]: 4.2e-10 M (inferred) | pErbB3 % Inhibition (BxPC-3) [8]: 100% | pErbB3 IC50 (BxPC-3) [8]: 1.4e-10 M (inferred)
B19: M78-G1-P6 (bispecific antibody, human IgG1, kappa)
heavy: not shown
light: B13 light with L4M, R51S, E70D, A84G, T93A, W94F

pAKT IC50 (BxPC-3) [10]: 1.4e-08 M (inferred) | pAKT IC50 (DU145) [10]: 9.8e-09 M (inferred) | pIGF-1R IC50 (BxPC-3) [10]: 2.4e-09 M (inferred) | pIGF-1R IC50 (DU145) [10]: 9.1e-10 M (inferred)
B21: Anti-IGF-1R Ab# B (cixutumumab) (antibody, V domains shown)
VH: EVQLVQSGAEVKKPGSSVKVSCKASGGTFSSYAISWVRQAPGQGLEWMGGIIPIFGTANYAQKFQGRVTITADKSTSTAYMELSSLRSEDTAVYYCARAPLRFLEWSTQDHYYYYYMDVWGKGTTVTVSS
VL: SSELTQDPAVSVALGQTVRITCQGDSLRSYYATWYQQKPGQAPILVIYGENKRPSGIPDRFSGSSSGNTASLTITGAQAEDEADYYCKSRDGSGQHLVFGGGTKLTVLG

Further lines, the binder ahead of its results:

B3: M27/M7-G1-M78 (bispecific antibody, human IgG1, lambda)
heavy: not shown
light: B2 light with W92T, Q96K, L108I
pIGF1R % Inhibition (BxPC-3) [7]: 91% | pIGF1R IC50 (BxPC-3) [7]: 1e-09 M (inferred) | pErbB3 % Inhibition (BxPC-3) [8]: 140% | pErbB3 IC50 (BxPC-3) [8]: 1.1e-10 M (inferred)

B4: M27/M7-G1-M57 (bispecific antibody, human IgG1, lambda)
heavy: not shown
light: B2 light with W92T, Q96K, L108I
pIGF1R % Inhibition (BxPC-3) [7]: 91% | pIGF1R IC50 (BxPC-3) [7]: 7.5e-09 M (inferred) | pErbB3 % Inhibition (BxPC-3) [8]: 179% | pErbB3 IC50 (BxPC-3) [8]: 1.5e-10 M (inferred)

B5: M7-G1-M57 (bispecific antibody, human IgG1, lambda)
heavy: not shown
light: B2 light with W92T, Q96K, L108I
pIGF1R IC50 (BxPC-3) [5]: 2.1e-08 M (inferred) | pErbB3 IC50 (BxPC-3) [6]: 5.2e-11 M (inferred) | pIGF1R % Inhibition (BxPC-3) [7]: 82% | pIGF1R IC50 (BxPC-3) [7]: 2.1e-08 M (inferred) | pErbB3 % Inhibition (BxPC-3) [8]: 124% | pErbB3 IC50 (BxPC-3) [8]: 5.2e-11 M (inferred)

B6: M27-G1-M57 (bispecific antibody, human IgG1, lambda)
heavy: not shown
light: B2 light with W92T, N95D
pIGF1R % Inhibition (BxPC-3) [7]: 83% | pIGF1R IC50 (BxPC-3) [7]: 8.1e-09 M (inferred) | pErbB3 % Inhibition (BxPC-3) [8]: 88% | pErbB3 IC50 (BxPC-3) [8]: 3.1e-10 M (inferred)

B7: M7-G1-P4 (bispecific antibody, human IgG1, lambda)
heavy: not shown
light: B2 light with W92T, Q96K, L108I
pIGF1R IC50 (BxPC-3) [5]: 2.4e-09 M (inferred) | pErbB3 IC50 (BxPC-3) [6]: 2.4e-11 M (inferred) | pIGF1R % Inhibition (BxPC-3) [7]: 93% | pIGF1R IC50 (BxPC-3) [7]: 2.4e-09 M (inferred) | pErbB3 % Inhibition (BxPC-3) [8]: 109% | pErbB3 IC50 (BxPC-3) [8]: 2.4e-11 M (inferred)

B8: M27-G1-P4 (bispecific antibody, human IgG1, lambda)
heavy: not shown
light: B2 light with W92T, N95D
pIGF1R % Inhibition (BxPC-3) [7]: 88% | pIGF1R IC50 (BxPC-3) [7]: 3e-09 M (inferred) | pErbB3 % Inhibition (BxPC-3) [8]: 106% | pErbB3 IC50 (BxPC-3) [8]: 1e-10 M (inferred)

B11: M27/M7-G1-P4 (bispecific antibody, human IgG1, lambda)
heavy: not shown
light: B2 light with W92T, Q96K, L108I
pIGF1R % Inhibition (BxPC-3) [7]: 99% | pIGF1R IC50 (BxPC-3) [7]: 1.3e-08 M (inferred) | pErbB3 % Inhibition (BxPC-3) [8]: 111% | pErbB3 IC50 (BxPC-3) [8]: 4e-11 M (inferred)

B12: M27-G1-M78 (bispecific antibody, human IgG1, lambda)
heavy: not shown
light: B2 light with W92T, N95D
pIGF1R % Inhibition (BxPC-3) [7]: 87% | pIGF1R IC50 (BxPC-3) [7]: 1.4e-09 M (inferred) | pErbB3 % Inhibition (BxPC-3) [8]: 107% | pErbB3 IC50 (BxPC-3) [8]: 1.2e-10 M (inferred)

B17: P4-G1-P6 (bispecific antibody, human IgG1, kappa)
heavy: not shown
light: B13 light with L4M, R51K, R54L, E70D, W94F
pIGF1R % Inhibition (BxPC-3) [7]: 91% | pIGF1R IC50 (BxPC-3) [7]: 1.6e-10 M (inferred) | pErbB3 % Inhibition (BxPC-3) [8]: 95% | pErbB3 IC50 (BxPC-3) [8]: 3.9e-11 M (inferred)

B20: P4-G1-M1.3 (bispecific antibody, human IgG1, kappa)
heavy: not shown
light: B13 light with L4M, R51K, R54L, E70D, W94F
pAKT IC50 (BxPC-3, IGF1 40 ng/ml) [3]: 1.4e-10 M | pAKT IC50 (BxPC-3, IGF1 400 ng/ml) [3]: 2.1e-10 M | pIGF1R IC50 (BxPC-3, IGF1 40 ng/ml) [3]: 1.2e-10 M | pIGF1R IC50 (BxPC-3, IGF1 400 ng/ml) [3]: 9.9e-11 M | pAKT IC50 (BxPC-3, HRG 20 ng/ml) [9]: 3.97e-11 M | pAKT IC50 (BxPC-3, HRG 200 ng/ml) [9]: 4.09e-11 M | pErbB3 IC50 (BxPC-3, HRG 20 ng/ml) [9]: 3.12e-11 M | pErbB3 IC50 (BxPC-3, HRG 200 ng/ml) [9]: 2.72e-11 M | % IGF1R Downregulation (A549, 24 h) [4]: 72% | % IGF1R Downregulation (BxPC-3, 24 h) [4]: 71% | pIGF1R IC50 (BxPC-3) [5]: 1.1e-09 M (inferred) | pErbB3 IC50 (BxPC-3) [6]: 5.3e-11 M (inferred) | pIGF1R % Inhibition (BxPC-3) [7]: 92% | pIGF1R IC50 (BxPC-3) [7]: 1.8e-10 M (inferred) | pErbB3 % Inhibition (BxPC-3) [8]: 94% | pErbB3 IC50 (BxPC-3) [8]: 5.5e-11 M (inferred)
